Experiment [1] concerns the target T1, mIL-10R1 on Ba/F3-mIL-10R1 cells (mouse pro-B cell line stably transfected with mIL-10R1) (murine, UniProt Q61727 17-575).
T1 construct: whole, on cells; also called IL-10 receptor
T1 sequence (looked up): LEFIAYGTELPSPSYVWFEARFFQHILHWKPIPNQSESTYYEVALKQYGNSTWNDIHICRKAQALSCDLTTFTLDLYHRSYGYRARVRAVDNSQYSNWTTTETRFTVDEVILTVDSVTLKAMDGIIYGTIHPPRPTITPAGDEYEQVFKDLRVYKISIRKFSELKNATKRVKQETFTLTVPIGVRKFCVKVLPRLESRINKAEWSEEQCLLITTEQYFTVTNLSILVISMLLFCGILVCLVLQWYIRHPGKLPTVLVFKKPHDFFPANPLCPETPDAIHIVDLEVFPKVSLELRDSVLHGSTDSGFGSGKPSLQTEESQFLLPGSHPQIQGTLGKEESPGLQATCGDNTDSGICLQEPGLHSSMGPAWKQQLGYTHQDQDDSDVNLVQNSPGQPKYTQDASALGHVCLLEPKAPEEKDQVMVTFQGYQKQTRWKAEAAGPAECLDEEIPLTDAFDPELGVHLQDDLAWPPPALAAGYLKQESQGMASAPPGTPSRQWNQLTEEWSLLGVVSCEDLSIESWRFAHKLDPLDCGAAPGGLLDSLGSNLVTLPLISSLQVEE
In words: flow cytometry on Ba/F3-mIL-10R1 cells, 100 ng purified IL-10-myc-his, 4° C. for 2 h. A general note: Flow cytometry measures light scatter and fluorescence of single cells or particles in a stream.

Experiment [2] has as its target T1, mIL-10R1 on Ba/F3-mIL-10R1 cells (mouse …). Briefly: flow cytometry on Ba/F3-mIL-10R1 cells.

Where a chain is given by its changes, count along the chain named. Names and notes keep the numbering of the source.

B1: purified hIL-10-myc-his (human IL-10 with carboxyl terminal myc-his tag) (ligand)
chain: SPGQGTQSENSCTHFPGNLPNMLRDLRDAFSRVKTFFQMKDQLDNLLLKESLLEDFKGYLGCQALSEMIQFYLEEVMPQAENQDPDIKAHVNSLGENLKTLRLRLRRCHRFLPCENKSKAVEQVKNAFNKLQEKGIYKAMSEFDIFINYIEAYMTMKIRN
notes: also called C-terminal myc-his tagged hIL-10; not shown: C-terminal myc-his tag from the pcDNA3.1-myc-his vector
Take B1: the binding result in experiment [1] is “binds”.

B2: hIL-10 with amino terminal FLAG tag (pFLAGCMV-1 construct) (ligand, not shown: small tags and cut ends)
chain: B1 chain
notes: also called amino terminal FLAG construct of hIL-10
In the case of B2, the binding result in experiment [2] was “binds”.

B3: purified hIL-10(I87A)-myc-his (human IL-10 with the single mutation, carboxyl terminal myc-his tag) (ligand)
chain: B1 chain with I87A
notes: also called hIL-10(187A); Ala87 version of IL-10; not shown: C-terminal myc-his tag from the pcDNA3.1-myc-his vector
Regarding B3, the binding result in experiment [1] is “binds”.

These data come from US6428985 (REGENTS OF THE UNIVERSITY OF MICHIGAN, dated 2002).
